Columns and labels:
JP2-KD cardiomyocytes = test: Confocal Ca2+ imaging in JP2-KD cardiomyocytes after adenoviral expression; format: cell-based, mouse
Description: Specifically, conditional shJP2 mice (provided by Dr. Wehrens) (van Oort et al., 2011) were crossed with mice carrying the cardiac-specific α-myosin heavy chain promoter upstream of Cre (% MHC-Cre, also FVB-Tg(Myh6-cre)2182Mds/J, The Jackson Laboratory). The shJP2 mice were maintained on a C57BL/6 background for more than 10 generations. The αMHC-Cre mice were maintained on an FVB background. PCR was used to genotype the offspring. The near complete depletion of JP2 protein in JP2-KD (αMHC-Cre X shJP2) hearts has been reported recently (Chen et al., 2013). JP2-KD mice were sacrificed at 2 months of age for isolation and culture of ventricular cardiomyocytes as described below.
(§1) Genecarrior-1 (Epoch Lab) was used to transfect plasmids into HEK293T cells. Isolation and culture of cardiomyocytes were performed as described previously (Guo et al., 2012). […] Ca^2+ Imaging experiments were performed 40 hours after adenoviral infection.
(§2) Cells were loaded with Rhod-2AM at 37° C. for 20 minutes, followed by washing with Tyrode's solution at room temperature for 15 minutes before Ca^2+ imaging. Confocal images were acquired using a ×63, 1.3 numerical aperture oil immersion objective mounted on a Zeiss LSM 510 confocal microscope. Confocal line scanning was used to record Ca^2+ signals. Steady-state Ca^2+ transients were recorded in Tyrode's solution containing 1.8 mM Ca^2+ under field stimulation of 1 Hz. At least five steady-state transients for each cell were analyzed and averaged to represent Ca^2+ signals of the cell. Ca^2+ imaging data were analyzed by using a home-complied software, CaTeasy, which is coded in MATLAB 2013a (Mathworks). Briefly, the program normalizes Ca^2+ transient images on a column-by-column basis (512 columns/image). The characteristic parameters of normalized transients were detected automatically. The firing time of every scanning pixel was detected column by column on the basis of the maximum local variability of pixel intensity. The profile of the point-to-point firing time was indicated by a red line overlapping on the Ca^2+ image. Index of desynchronization, defined by the mean absolute deviation of firing time of each scanning pixel (with every 8 pixels binned), was used to evaluate the dyssynchrony of Ca^2+ transients. This automated software for calcium transient analysis is available upon request.

WT cardiomyocytes = test: Confocal Ca2+ imaging in WT cardiomyocytes after adenoviral expression; format: cell-based, mouse; conditions: 1-Hz field stimulation; overexpression in WT cardiomyocytes
Procedure: as §1
as §2, with “Index of desynchronization, defined by the mean absolute deviation of firing time of each scanning pixel (with every 8 pixels binned), was used to evaluate the dyssynchrony of Ca^2+ transients. This automated software for calcium transient analysis is available upon request.” left out

RyR2 and Cav1.2 = test: Coimmunoprecipitation with E-C coupling channels; format: binding, mouse; conditions: anti-HA immunoprecipitation
Description: FIGS. 5A-H. JP2 truncations are nonfunctional in regulating Ca^2+ transients. A) An antibody against the HA tag was used to reveal the localization of adenoviral expression of tagged full-length JP2 and truncations, as indicated, in adult wild-type cardiomyocytes. All the three version of JP2 can be localized in the striated pattern. B) Full-length JP2 and JP2(1-565) forms complexes with RyR2 and Cav1.2 In vivo. An antibody against HA was used for immunoprecipitation […]. The RyR2 and Cav1.2 that were pulled down were detected by Western blot analysis. […] IB, immunoblot. C) Adenovirus-mediated expression of full-length JP2, FLAG-JP2(1-565)-HA, and JP2(566-end)-HA in JP2-KD) cardiomyocytes. D) Representative steady-state Ca^2+ transients under 1-Hz field stimulation. The fluorescence intensity (F) of Ca^2+ imaging was normalized to the baseline (FO). The red lines overlapping on Ca^2+ imaging show the profile of the moment of Ca^2+ transient firing on the scanning line in a point-by-point way. A straighter line means better synchronization of the Ca^2+ transients. Note that expression of full-length JP2, but not JP2 truncations, improves the amplitude and synchronization of Ca^2+ transients. E-G) Summary of Ca^2+ transient amplitude, index of desynchronization (mean absolute deviation of firing time), and duration of 50% decay (T5) (n=68, 70, 70, and 52 for Ad-Empty, Ad-JP2, […], and Ad-JP2(566-end), respectively). Only full-length JP2 Improves the amplitude, synchronization, and decay of Ca^2+ transients. H) Summary of SR Ca^2+ content, which was assessed by caffeine-induced SR Ca^2+ release (n=17, 17, 17, and 12 for Ad-Empty, Ad-JP2, Ad-JP2(1-565), and Ad-JP2(566-end), respectively). **, p<0.01 versus indicated groups; N.S., not significant.
Cleavage at the primary calpain proteolysis site (Arg-565/Thr-566) splits apart the C-terminal SR-binding TM domain and N-terminal plasma membrane-binding MORN domains of JP2. […]

[1] = test system: cultured adult murine cardiomyocytes; test: Affymetrix Genechip analysis of cultured cardiomyocytes; format: cell-based, mouse; conditions: vs Ad-Empty control
Procedure: Genecarrior-1 (Epoch Lab) was used to transfect plasmids into HEK293T cells. Isolation and culture of cardiomyocytes were performed as described previously (Guo et al., 2015). Adenoviruses were applied at a multiplicity of infection (MOI) of about 100, which results in transfection of almost all cells as confirmed by immunostaining of eptiope tags.
Microarray assay was performed by Affymetrix GeneChip® Mouse Genome 430 2.0 according to the standard procedure of cRNA preparation and Genechip hybridization. The R package limma (version 3.22.7) (Ritchie et al., 2015) was used for processing microarray data and identifying differentially expressed genes (the cutoff of significance was p value<0.01). David (Huang et al., 2009) was used for gene enrichment (GO) analysis. Ingenuity pathway analysis (IPA, Qiagen) was used for pathway analysis.

B1: full-length JP2: full-length junctophilin-2, FLAG/HA tagged, expressed by adenovirus (protein, UniProt Q9BR39 1-696, looked up)
chain: MSGGRFDFDDGGAYCGGWEGGKAHGHGLCTGPKGQGEYSGSWNFGFEVAGVYTWPSGNTFEGYWSQGKRHGLGIETKGRWLYKGEWTHGFKGRYGIRQSSSSGAKYEGTWNNGLQDGYGTETYADGGTYQGQFTNGMRHGYGVRQSVPYGMAVVVRSPLRTSLSSLRSEHSNGTVAPDSPASPASDGPALPSPAIPRGGFALSLLANAEAAARAPKGGGLFQRGALLGKLRRAESRTSVGSQRSRVSFLKSDLSSGASDAASTASLGEAAEGADEAAPFEADIDATTTETYMGEWKNDKRSGFGVSERSSGLRYEGEWLDNLRHGYGCTTLPDGHREEGKYRHNVLVKDTKRRMLQLKSNKVRQKVEHSVEGAQRAAAIARQKAEIAASRTSHAKAKAEAAEQAALAANQESNIARTLARELAPDFYQPGPEYQKRRLLQEILENSESLLEPPDRGAGAAGLPQPPRESPQLHERETPRPEGGSPSPAGTPPQPKRPRPGVSKDGLLSPGAWNGEPSGEGSRSVTPSEGAGRRSPARPATERMAIEALQAPPAPSREPEVALYQGYHSYAVRTTPPEPPPFEDQPEPEVSGSESAPSSPATAPLQAPTLRGPEPARETPAKLEPKPIIPKAEPRAKARKTEARGLTKAGAKKKARKEAALAAEAEVEVEEVPNTILICMVILLNIGLAILFVHLLT
modifications: full-length FLAG/HA tags; adenoviral expression
notes: full-length junctophilin-2, FLAG/HA tagged, expressed by adenovirus
- decay phase (T50) of Ca2+ transients (JP2-KD cardiomyocytes; 1-Hz field stimulation): shortened decay phase
- synchronization of Ca2+ transients (index of desynchronization) (JP2-KD cardiomyocytes; 1-Hz field stimulation): increased synchronization
- increase of Ca2+ transient amplitude (JP2-KD cardiomyocytes; 1-Hz field stimulation, adenoviral expression): 50%
- SR Ca2+ content (JP2-KD cardiomyocytes; caffeine-induced SR Ca2+ release): not influenced
- kinetics of steady-state Ca2+ transients and SR Ca2+ loading (WT cardiomyocytes): did not alter
- interaction with RyR2 and Cav1.2 (RyR2 and Cav1.2): interact
- significantly induced known genes (p<0.01) [1]: 96 genes
- significantly repressed known genes (p<0.01) [1]: 264 genes
